# Measured values: paper PMC12102759
# B1: PEX5 peptide 238-253 (Peroxisomal targeting signal 1 receptor), 16-mer library wild type / PEX14 Pex14 (PEX14 PEX14, residues 16-84) (parent)
# chain 1: AQAEQWAAEFIQQQGT
# chain 2: TPGSENVLPREPLIATAVKFLQNSRVRQSPLATRRAFLKKKGLTDEEIDMAFQQSGTAADEPSSLGPAT
# Variants of: B1
# Assay: proteomic peptide phage display deep mutational scan (ProP-PD DMS): M13 P8 16-mer library selected against immobilised GST-tagged bait for four days (rounds), NGS of the eluted pools per day and pseudo-replica
# Conditions: with PEX14 Pex14 (PEX14 PEX14, residues 16-84); bait immobilised on MaxiSorp plates (10 µg), library pre-cleared on GST, 2 h binding at 4 °C, five washes; one round per day, days 1-4; value from days 2 and 3; keep out of graded; scale: average fractional NGS count over selection days 2 and 3
row,Variant,screen value
1,chain 1 AAAEQWAAEFIQQQGT,0
2,chain 1 ANAEQWAAEFIQQQGT,7.71e-05
3,chain 1 ASAEQWAAEFIQQQGT,0.000758
4,chain 1 ARAEQWAAEFIQQQGT,7.71e-05
5,chain 1 ATAEQWAAEFIQQQGT,0.000198
6,chain 1 AQAEAWAAEFIQQQGT,0.000195
7,chain 1 AQAEHWAAEFIQQQGT,0.000302
8,chain 1 AQAEIWAAEFIQQQGT,7.71e-05
9,chain 1 AQAEEWAAEFIQQQGT,0
10,chain 1 AQAEWWAAEFIQQQGT,0
11,chain 1 AQAESWAAEFIQQQGT,0.000207
12,chain 1 AQAENWAAEFIQQQGT,9.07e-05
13,chain 1 AQAETWAAEFIQQQGT,0.00028
14,chain 1 AQAEKWAAEFIQQQGT,0
15,chain 1 AQAEFWAAEFIQQQGT,0
16,chain 1 AQAEQWAAEFIQQVGT,0.000266
17,chain 1 AQAEQWAAEFIQQDGT,0.000186
18,chain 1 AQAEQWAAEFIQQHGT,0.000732
19,chain 1 AQAEQWAAEFIQQKGT,0
20,chain 1 AQAEQWAAEFIQQRGT,0.0013
21,chain 1 AQAEQWAAEFIQQWGT,0.000797
22,chain 1 AQAEQWAAEFIQQFGT,0.000215
23,chain 1 AQAEQWAAEFIQQIGT,0.00105
24,chain 1 AQAEQWAAEFIQQGGT,0.00214

row,Variant,screen value
1,chain 1 AQAEQWAAEFIQQTGT,0
2,chain 1 AQAEQWAAEFIQQSGT,0.00134
3,chain 1 AQAEQWAAEFIQQEGT,0
4,chain 1 AQDEQWAAEFIQQQGT,0.000241
5,chain 1 AQEEQWAAEFIQQQGT,0.000385
6,chain 1 AQWEQWAAEFIQQQGT,0
7,chain 1 AQNEQWAAEFIQQQGT,0.00244
8,chain 1 AQPEQWAAEFIQQQGT,0.000153
9,chain 1 AQVEQWAAEFIQQQGT,0.000366
10,chain 1 AQLEQWAAEFIQQQGT,0
11,chain 1 AQTEQWAAEFIQQQGT,0.000152
12,chain 1 AQSEQWAAEFIQQQGT,0.000376
13,chain 1 AQIEQWAAEFIQQQGT,0
14,chain 1 AQGEQWAAEFIQQQGT,0.000791
15,chain 1 AQYEQWAAEFIQQQGT,0.000443
16,chain 1 AQMEQWAAEFIQQQGT,0.000674
17,chain 1 AQAEQWAAEFIQQQGW,0.00013
18,chain 1 AQAEQWAAEFIQQQGH,0.00132
19,chain 1 AQAEQWAAEFIQQQGA,0.000218
20,chain 1 AQAEQWAAEFIQQQGE,0
21,chain 1 AQAEQWAAEFIQQQGD,0.000181
22,chain 1 AQAEQWAAEFIQQQGG,0
23,chain 1 AQAEQWAAEFIQQQGL,0.000704
